Test results taken from US20200010567A1 (NEURIMMUNE, published 2020).

Columns and labels:
GA3: H-(GA)3HHHHHH-NH2 [1] = molecular target: T1, GA3: H-(GA)3HHHHHH-NH2; assay: indirect ELISA, His-tagged peptide coated at 50 ug/ml, antibody titrated [also D00025 FIG. 7H]
T1 peptide: H-GAGAGAHHHHHH-NH2
Protocol: (§1) 96-well microplates (Corning Incorporated, Corning, USA) were coated with dipeptide repeat protein peptides at a concentration of 50 μg/ml in coating buffer (15 mM Na₂CO₃, 35 mM NaHCO₃, pH 9.42). Non-specific binding sites were blocked for 1 h at room temperature with PBS/0.1% Tween®-20 containing 2% BSA (Sigma-Aldrich, Buchs, Switzerland). Primary antibodies were diluted to the indicated concentrations and incubated 1 h at room temperature, followed by incubation with a donkey anti-human IgG Fcγ-specific antibody conjugated with HRP (Jackson ImmunoResearch Laboratories, Inc., West Grove, USA). Binding was determined by measurement of HRP activity in a standard colorimetric assay. EC₅₀ values were estimated by non-linear regression using GraphPad Prism software (San Diego, USA).
High affinity binding was detected for poly-GA DPRs harboring 10 or 20 (GA)-repeats, reflected in an EC₅₀ in the subnanomolar or low nanomolar range (FIGS. 7A, 7C-7I).

[2] = molecular target: T2, BSA-coupled (GP)15 DPR protein peptide (bovine, conjugated via a bifunctional linker (SMCC) to bovine serum albumin); assay: indirect ELISA, BSA-coupled peptide coated, antibody titrated [also D00014 FIG. 3G]
T2 construct: also called BSA-(GP)15
T2 sequence (peptide, as listed by the source limits assumed, chain 1 of 2): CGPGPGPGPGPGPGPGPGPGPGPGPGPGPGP
T2 sequence (P02769 25-607 limits assumed, chain 2 of 2): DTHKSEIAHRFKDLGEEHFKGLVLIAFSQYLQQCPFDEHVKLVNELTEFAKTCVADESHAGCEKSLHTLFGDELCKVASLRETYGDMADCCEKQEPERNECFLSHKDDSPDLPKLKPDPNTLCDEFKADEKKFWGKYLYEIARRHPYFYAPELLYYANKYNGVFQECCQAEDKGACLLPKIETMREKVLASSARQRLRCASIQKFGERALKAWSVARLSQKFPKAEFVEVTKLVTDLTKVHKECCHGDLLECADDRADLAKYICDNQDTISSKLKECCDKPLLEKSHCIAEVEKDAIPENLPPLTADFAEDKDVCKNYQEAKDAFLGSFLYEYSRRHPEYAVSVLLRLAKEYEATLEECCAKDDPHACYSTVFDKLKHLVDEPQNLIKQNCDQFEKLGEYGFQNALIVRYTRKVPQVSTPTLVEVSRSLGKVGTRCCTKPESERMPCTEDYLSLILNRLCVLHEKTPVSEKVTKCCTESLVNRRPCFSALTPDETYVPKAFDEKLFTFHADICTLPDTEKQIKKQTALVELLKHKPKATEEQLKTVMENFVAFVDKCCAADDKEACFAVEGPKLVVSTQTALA
Protocol: as §1, with “In brief, dipeptide repeat proteins were synthesized and purified by Schafer-N(Copenhagen, Denmark): (GA)₁₅: H-CHHHHHH(GA)₁₅-OH; (GP)₁₅: H-C(GP)₁₅-OH; (GR)₁₅: H-C(GR)₁₅-OH; (PA)₁₅: H-C(PA)₁₅-OH; (PR)₁₅: H—C(PR)₁₅-OH. DPR protein peptides were then conjugated via a bifunctional linker (SMCC) to bovine serum albumin (BSA). 96-well microplates” for “96-well microplates”, “coated with BSA-coupled or -uncoupled dipeptide repeat” for “coated with dipeptide repeat”, “concentration of either 5 μg/ml or 20 μg/ml in” for “concentration of 50 μg/ml in”

GA3: H-(GA)3HHHHHH-NH2 [3] = molecular target: T1, GA3: H-(GA)3HHHHHH-NH2; assay: indirect ELISA, His-tagged peptide coated at 50 ug/ml, antibody titrated [also D00025 FIG. 7G]
From the text: (§2) In brief, dipeptide repeat proteins were synthesized and purified by Schafer-N (Copenhagen, Denmark): GA₂₀: H-(GA)₂₀HHHHHH-NH₂; GA₁₀: H-(GA)₁₀HHHHHH-NH₂; GA₆: H-(GA)₆HHHHHH-NH₂; GA₅: H-(GA)₅HHHHHH-NH₂; GA₄: H-(GA)₄HHHHHH-NH₂; GA₃: H-(GA)₃HHHHHH-NH₂; GA₂: H-(GA)₂HHHHHH-NH₂; GP₂₀: H-(GP)₂₀HHHHHH-NH₂; GP₁₀: H-(GP)₁₀HHHHHH-NH₂; GP₆: H-(GP)₆HHHHHH-NH₂; GP₅: H-(GP)₅HHHHHH-NH₂; GP₄: H-(GP)₄HHHHHH-NH₂; GP₃: H-(GP)₃HHHHHH-NH₂; GP₂: H-(GP)₂HHHHHH-NH₂. GR₂₀: H-(GR)₂₀HHHHHH-NH₂; GR₁₀: H-(GR)₁₀HHHHHH-NH₂; GR₆: H-(GR)₆HHHHHH-NH₂; GR₅: H-(GR)₅HHHHHH-NH₂; GR₄: H-(GR)₄HHHHHH-NH₂; GR₃: H-(GR)₃HHHHHH-NH₂; GR₂: H-(GR)₂HHHHHH-NH₂; PA₂₀: H-(PA)₂₀HHHHHH-NH₂; PA₁₀: H-(PA)₁₀HHHHHH-NH₂; PA₆: H-(PA)₆HHHHHH-NH₂; PA₅: H-(PA)₅HHHHHH-NH₂; PA₄: H-(PA)₄HHHHHH-NH₂; PA₃: H-(PA)₃HHHHHH-NH₂; PA₂: H-(PA)₂HHHHHH-NH₂; PR₂₀: H-(PR)₂₀HHHHHH-NH₂; PR₁₀: H-(PR)₁₀HHHHHH-NH₂; PR₆: H-(PR)₆HHHHHH-NH₂; PR₅: H-(PR)₅HHHHHH-NH₂; PR₄: H-(PR)₄HHHHHH-NH₂; PR₃: H-(PR)₃HHHHHH-NH₂; PR₂: H-(PR)₂HHHHHH-NH₂. 96-well microplates (Corning Incorporated, Corning, USA) were coated with dipeptide repeat protein peptides at a concentration of 50 μg/ml in coating buffer (15 mM Na₂CO₃, 35 mM NaHCO₃, pH 9.42). Non-specific binding sites were blocked for 1 h at room temperature with PBS/0.1% Tween®-20 containing 2% BSA (Sigma-Aldrich, Buchs, Switzerland). Primary antibodies were diluted to the indicated concentrations and incubated 1 h at room temperature, followed by incubation with a donkey anti-human IgG Fcγ-specific antibody conjugated with HRP (Jackson ImmunoResearch Laboratories, Inc., West Grove, USA). Binding was determined by measurement of HRP activity in a standard colorimetric assay. EC₅₀ values were estimated by non-linear regression using GraphPad Prism software (San Diego, USA).

GA5: H-(GA)5HHHHHH-NH2 = molecular target: T3, GA5: H-(GA)5HHHHHH-NH2; assay: as above
T3 peptide: H-GAGAGAGAGAHHHHHH-NH2
From the text: as §2

GA4: H-(GA)4HHHHHH-NH2 = molecular target: T4, GA4: H-(GA)4HHHHHH-NH2; assay: as above
T4 peptide: H-GAGAGAGAHHHHHH-NH2
From the text: as §2

GA2: H-(GA)2HHHHHH-NH2 = molecular target: T5, GA2: H-(GA)2HHHHHH-NH2; assay: as above
T5 peptide: H-GAGAHHHHHH-NH2
From the text: as §2

[4] = molecular target: T6, (GA)15: H-CHHHHHH(GA)15-OH; assay: indirect ELISA, uncoupled peptide coated, antibody titrated [also D00012 FIG. 3B]
T6 construct: synthetic, not coupled to BSA; also called poly-GA DPR protein peptide
T6 peptide: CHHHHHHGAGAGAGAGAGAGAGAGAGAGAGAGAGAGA
Protocol: as §1, with “In brief, dipeptide repeat proteins were synthesized and purified by Schafer-N(Copenhagen, Denmark): (GA)₁₅: H-CHHHHHH(GA)₁₅-OH; (GP)₁₅: H-C(GP)₁₅-OH; (GR)₁₅: H-C(GR)₁₅-OH; (PA)₁₅: H-C(PA)₁₅-OH; (PR)₁₅: H—C(PR)₁₅-OH. DPR protein peptides were then conjugated via a bifunctional linker (SMCC) to bovine serum albumin (BSA). 96-well microplates” for “96-well microplates”, “coated with BSA-coupled or -uncoupled dipeptide repeat” for “coated with dipeptide repeat”, “concentration of either 5 μg/ml or 20 μg/ml in” for “concentration of 50 μg/ml in”

B1: NI-308.28G1 (antibody, V domains shown)
VH: QVQLQESGPRLVKPSETLSLTCTVAGGSVNSYYWTWIQQSPGKGLEWLGRIYIAGRTNYNPSLTSRIALSVDTSRNQLSLKLTSVTAADTAIYYCARWGAESGDYYYGVDVWGPGTLVTVSS
VL: EIVMTQSPLSLPVTPGEPASISCKSSEGLLHSNGYTYLDWYLQKPGQAPQLLIFLASNRAAGVPDRFSGSGSGTDFTLKISRVEAEDVGVYYCMQAIQSPWTFGPGTKVEIK
notes: Recombinant complete human IgG1, kappa
binding result (GA3: H-(GA)3HHHHHH-NH2 [1]): no binding (tested: about 4x10^5 pM (last point))

B2: NI-308.5G2 (antibody, V domains shown)
VH: EVQLVQSGADLRNPGASVTVSCTASGYHFADNAINWLRQAPGQRLEWMGWINIYSGNTKYSQNFQGRVTFTRNTSASTAFMHLRSLRSEDTAVYFCARDPDSSGYYLPYFDYWGQGTLVTVSS
VL: DIQLTQSPDSLTLSLGERATINCKSSQSVFYNSNNKNYLAWYQQKPGQPPKLLMYWASTRESGVTDRFSGSGSGTDFTLTITNLQAEDVAVYYCQQFYSSPLTFGGGTKVEIK
notes: as for B1
EC50 [2]: 0.21 nM

B3: NI-308.18F7 (antibody, V domains shown)
VH: QVQLQESGPGLVKPSETLSVTCTVSGGSINDYYWNWIRQPAGKGLEWIGRIYASGTINYNPSLQSRVTMSIDTSKNQFSLDLISVSAADTAVYYCARWGQVVGDYYYGMDVWGQGTTVTVSS
VL: EIVLTQSPLSLSVTPGEPASISCKSSQSLQHTNGYNYLDWYLLKPGQSPQLLIFLTSNRASGVPDRFSGSGSGTNFTLKISRVEAEDVGVYYCMEGIQLWTFGQGTKLEIK
notes: as for B1
binding result (GA3: H-(GA)3HHHHHH-NH2 [3]): no binding (tested: about 4x10^5 pM (last point))
binding result (GA5: H-(GA)5HHHHHH-NH2): no binding (tested: about 4x10^5 pM (last point))
binding result (GA4: H-(GA)4HHHHHH-NH2): no binding (tested: about 4x10^5 pM (last point))
binding result (GA2: H-(GA)2HHHHHH-NH2): no binding (tested: about 4x10^5 pM (last point))
EC50 [4]: 0.34 nM
